From the supplement of paper PMC10126150
± gives the standard deviation of the averaged measurements.

System: ATP
Assay: switch fluorescence ratio, 500 uM ATP over buffer (Cy3 cluster intensity, sum of 5 cycles each) (fold (ratio)); higher = stronger signal-on switching upon ATP binding; sequences stand for … in TCGTCGGCAGCGTCAGATGTGTATAAGAGACAGTTTTTTTTTTTTTTTTTTTTTTTTT…TC
Conditions: aptamer strand: ATP DNA aptamer (quencher-CACCTGGGGGAGTATTGCGGAGGAAGG + anchor), 100 nM annealed; ATP concentration: 500 uM
In short: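 Exposure to 500 uM ATP lasted 15 min at 22 °C before imaging, and a selection-buffer image was taken beforehand, for Cy3-labelled switching-strand clusters on a modified Illumina MiSeq flow-cell annealed to 100 nM quencher-labelled ATP aptamer. Five buffer/ATP cycles were run with NaOH stripping and re-annealing between them. The fluorescence ratio per cluster is summed target-cycle over summed buffer-cycle Cy3 intensity, averaged per switch-domain sequence. Clusters outside 100-1000 RFU were excluded.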

TAGTTGGTGG
switch fluorescence ratio: 0.954 ± 0.046

TAGTTTATCA
switch fluorescence ratio: 1.001 ± 0.01

TAGTTTCGGC
switch fluorescence ratio: 0.958 ± 0.011

TAGTTTGGCT
switch fluorescence ratio: 1.02 ± 0.047

TAGTTTGGGA
switch fluorescence ratio: 1.01 ± 0.03

TAGTTTGGGG
switch fluorescence ratio: 0.999 ± 0.032

TAGTTTGGGT
switch fluorescence ratio: 0.974 ± 0.012

TAGTTTGTTA
switch fluorescence ratio: 0.987 ± 0.027

TAGTTTTAT
switch fluorescence ratio: 0.973 ± 0.016

TAGTTTTCGT
switch fluorescence ratio: 0.9817 ± 0.0012

TAGTTTTGTA
switch fluorescence ratio: 0.971 ± 0.05

TAGTTTTTAA
switch fluorescence ratio: 1.01 ± 0.008

TAGTTTTTCT
switch fluorescence ratio: 0.971 ± 0.022

TAGTTTTTTC
switch fluorescence ratio: 0.99 ± 0.021

TATAAAAACG
switch fluorescence ratio: 1.11 ± 0.2

TATAAAAATT
switch fluorescence ratio: 1.02 ± 0.025

TATAAAAGAA
switch fluorescence ratio: 1.04 ± 0.053

TATAAAAGAC
switch fluorescence ratio: 1.018 ± 0.01

TATAAAATGT
switch fluorescence ratio: 0.993 ± 0.036

TATAAAGCAG
switch fluorescence ratio: 1.03 ± 0.024

TATAAAGGGC
switch fluorescence ratio: 1.01 ± 0.054

TATAAAGGGG
switch fluorescence ratio: 1 ± 0.025

TATAAATGAA
switch fluorescence ratio: 0.9921 ± 0.0043

TATAAATGAT
switch fluorescence ratio: 1.06 ± 0.047

TATAAATTTG
switch fluorescence ratio: 1.01 ± 0.016

TATAACATAT
switch fluorescence ratio: 1.03 ± 0.041

TATAACATG
switch fluorescence ratio: 1.009 ± 0.0025

TATAAGAGCC
switch fluorescence ratio: 0.984 ± 0.043

TATAAGGGGC
switch fluorescence ratio: 0.997 ± 0.027

TATAAGTGGT
switch fluorescence ratio: 0.992 ± 0.023

TATAAGTGTT
switch fluorescence ratio: 1.002 ± 0.0067

TATAATCCCT
switch fluorescence ratio: 1.02 ± 0.083

TATAATTAAT
switch fluorescence ratio: 0.982 ± 0.029

TATACCATTT
switch fluorescence ratio: 1.01 ± 0.015

TATACCTTAA
switch fluorescence ratio: 1.051 ± 0.0042

TATACTATTG
switch fluorescence ratio: 1.01 ± 0.048

TATACTCAGC
switch fluorescence ratio: 1.03 ± 0.014

TATACTGTTG
switch fluorescence ratio: 0.976 ± 0.021

TATACTTGCC
switch fluorescence ratio: 1.04 ± 0.06

TATACTTTAT
switch fluorescence ratio: 1.02 ± 0.037

TATAGACAGG
switch fluorescence ratio: 0.989 ± 0.057

TATAGAGGTT
switch fluorescence ratio: 0.992 ± 0.015

TATAGCAGGG
switch fluorescence ratio: 1.03 ± 0.018

TATAGCTACC
switch fluorescence ratio: 1.13 ± 0.043

TATAGGGAAA
switch fluorescence ratio: 1.09 ± 0.11

TATAGGGAAG
switch fluorescence ratio: 1.02 ± 0.026

TATAGGGAGC
switch fluorescence ratio: 0.947 ± 0.017

TATAGGGCGG
switch fluorescence ratio: 1.13 ± 0.21

TATAGGGGAT
switch fluorescence ratio: 1.032 ± 0.0068

TATAGGGGGC
switch fluorescence ratio: 1.03 ± 0.05

TATAGGTGTT
switch fluorescence ratio: 1.05 ± 0.028

TATAGTCTA
switch fluorescence ratio: 1.01 ± 0.031

TATAGTGGAG
switch fluorescence ratio: 1.024 ± 0.0069

TATATAGAGC
switch fluorescence ratio: 1.02 ± 0.011

TATATAGCGC
switch fluorescence ratio: 0.983 ± 0.044

TATATAGGTA
switch fluorescence ratio: 1.01 ± 0.043

TATATATAGA
switch fluorescence ratio: 1 ± 0.041

TATATATATG
switch fluorescence ratio: 0.955 ± 0.031

TATATATTTA
switch fluorescence ratio: 0.988 ± 0.024

TATATCAGTT
switch fluorescence ratio: 1.007 ± 0.0087

TATATGACGG
switch fluorescence ratio: 0.997 ± 0.027

TATATGGATT
switch fluorescence ratio: 0.999 ± 0.015

TATATGGCCC
switch fluorescence ratio: 1.02 ± 0.02

TATATGTATC
switch fluorescence ratio: 0.9678 ± 0.0011

TATATTAAGA
switch fluorescence ratio: 1.01 ± 0.016

TATATTAGCC
switch fluorescence ratio: 1.03 ± 0.039

TATATTGAAC
switch fluorescence ratio: 1.022 ± 0.0028

TATATTGCGT
switch fluorescence ratio: 0.9711 ± 0.0073

TATATTGTA
switch fluorescence ratio: 0.986 ± 0.03

TATATTTGTT
switch fluorescence ratio: 0.997 ± 0.039

TATATTTTAT
switch fluorescence ratio: 0.982 ± 0.035

TATATTTTGC
switch fluorescence ratio: 0.994 ± 0.026

TATATTTTGT
switch fluorescence ratio: 1.02 ± 0.016

TATCAAAGAT
switch fluorescence ratio: 1 ± 0.02

TATCAATTTT
switch fluorescence ratio: 1 ± 0.03

TATCACATTT
switch fluorescence ratio: 1.02 ± 0.018

TATCACTAGG
switch fluorescence ratio: 1.02 ± 0.0022

TATCACTTTC
switch fluorescence ratio: 1.06 ± 0.033

TATCATGTGT
switch fluorescence ratio: 0.977 ± 0.03

TATCATTTTT
switch fluorescence ratio: 1 ± 0.011

TATCCACATT
switch fluorescence ratio: 1.02 ± 0.019

TATCCATGGG
switch fluorescence ratio: 0.978 ± 0.03

TATCCGACAT
switch fluorescence ratio: 1.15 ± 0.039

TATCCGTGCT
switch fluorescence ratio: 1 ± 0.029

TATCCTGGCT
switch fluorescence ratio: 0.9961 ± 0.0089

TATCGAAGCG
switch fluorescence ratio: 0.969 ± 0.058

TATCGAAGGT
switch fluorescence ratio: 0.986 ± 0.017

TATCGAATTA
switch fluorescence ratio: 0.987 ± 0.017

TATCGAGATA
switch fluorescence ratio: 1.02 ± 0.04

TATCGCTTGG
switch fluorescence ratio: 1 ± 0.018

TATCGGCAGC
switch fluorescence ratio: 1.07 ± 0.043

TATCGGGATG
switch fluorescence ratio: 0.956 ± 0.03

TATCGGGGGG
switch fluorescence ratio: 0.996 ± 0.043

TATCGTACAT
switch fluorescence ratio: 1.11 ± 0.023

TATCGTATGT
switch fluorescence ratio: 0.991 ± 0.027

TATCGTTGTA
switch fluorescence ratio: 0.93881 ± 0.00024

TATCTATATT
switch fluorescence ratio: 1 ± 0.016

TATCTATGAG
switch fluorescence ratio: 1.01 ± 0.046

TATCTGGCTT
switch fluorescence ratio: 1.019 ± 0.0013

TATCTGGGTC
switch fluorescence ratio: 1.02 ± 0.067

TATCTTCTAT
switch fluorescence ratio: 1.035 ± 0.0096

TATGAAGCCG
switch fluorescence ratio: 1.06 ± 0.044

TATGAAGCCT
switch fluorescence ratio: 1.16 ± 0.02

TATGAATATT
switch fluorescence ratio: 0.985 ± 0.027

TATGAATGTG
switch fluorescence ratio: 0.991 ± 0.022

TATGACGCAG
switch fluorescence ratio: 0.993 ± 0.011

TATGACTCGT
switch fluorescence ratio: 0.99 ± 0.021

TATGAGCAGC
switch fluorescence ratio: 1.01 ± 0.066

TATGAGGGG
switch fluorescence ratio: 0.999 ± 0.027

TATGAGTAGG
switch fluorescence ratio: 0.995 ± 0.015

TATGAGTATT
switch fluorescence ratio: 0.9875 ± 0.0026

TATGATATGG
switch fluorescence ratio: 1.04 ± 0.025

TATGATATTA
switch fluorescence ratio: 0.9907 ± 0.0064

TATGATGCTA
switch fluorescence ratio: 1.03 ± 0.088

TATGATGGAA
switch fluorescence ratio: 0.966 ± 0.024

TATGATGGTG
switch fluorescence ratio: 1.04 ± 0.035

TATGATTCGG
switch fluorescence ratio: 0.992 ± 0.057

TATGATTGCG
switch fluorescence ratio: 1.01 ± 0.04

TATGCAGACT
switch fluorescence ratio: 0.956 ± 0.092

TATGCAGCG
switch fluorescence ratio: 1.001 ± 0.0024

TATGCAGTTT
switch fluorescence ratio: 0.968 ± 0.026

TATGCATATG
switch fluorescence ratio: 1.02 ± 0.048

TATGCGATTG
switch fluorescence ratio: 1.04 ± 0.019

TATGCGCCGT
switch fluorescence ratio: 0.984 ± 0.026

TATGCGTTGC
switch fluorescence ratio: 1.02 ± 0.023

TATGCTAGGT
switch fluorescence ratio: 0.983 ± 0.012

TATGCTGGAG
switch fluorescence ratio: 1.02 ± 0.0047

TATGGAAGTA
switch fluorescence ratio: 1.01 ± 0.033

TATGGAGAGG
switch fluorescence ratio: 0.984 ± 0.015

TATGGAGTTA
switch fluorescence ratio: 0.986 ± 0.027

TATGGATCGC
switch fluorescence ratio: 1.01 ± 0.026

TATGGATTTT
switch fluorescence ratio: 0.987 ± 0.016

TATGGCGGGT
switch fluorescence ratio: 1 ± 0.014

TATGGGCAGG
switch fluorescence ratio: 1.04 ± 0.022

TATGGGGTAG
switch fluorescence ratio: 1 ± 0.013

TATGGGTAGC
switch fluorescence ratio: 0.986 ± 0.019

TATGGTATGC
switch fluorescence ratio: 1.0138 ± 0.00069

TATGGTGACG
switch fluorescence ratio: 1 ± 0.12

TATGGTGTGG
switch fluorescence ratio: 0.967 ± 0.024

TATGGTTACG
switch fluorescence ratio: 0.9997 ± 0.0022

TATGGTTTAG
switch fluorescence ratio: 1.02 ± 0.015

TATGTAATTG
switch fluorescence ratio: 0.965 ± 0.058

TATGTAATTT
switch fluorescence ratio: 0.9932 ± 0.0092

TATGTACCTT
switch fluorescence ratio: 1.179 ± 0.0091

TATGTACGTT
switch fluorescence ratio: 1.04 ± 0.051

TATGTAGCCG
switch fluorescence ratio: 1.03 ± 0.098

TATGTATAGG
switch fluorescence ratio: 1.03 ± 0.049

TATGTATCCG
switch fluorescence ratio: 1.03 ± 0.062

TATGTATGGA
switch fluorescence ratio: 0.989 ± 0.015

TATGTCCCGT
switch fluorescence ratio: 0.974 ± 0.029

TATGTGATGT
switch fluorescence ratio: 0.981 ± 0.032

TATGTGGGTG
switch fluorescence ratio: 1.01 ± 0.035

TATGTTCGAG
switch fluorescence ratio: 0.968 ± 0.033

TATGTTGGGG
switch fluorescence ratio: 0.957 ± 0.018

TATGTTGTCG
switch fluorescence ratio: 1.08 ± 0.12

TATGTTTTGA
switch fluorescence ratio: 0.994 ± 0.033

TATGTTTTTA
switch fluorescence ratio: 1.02 ± 0.019

TATTAAACCG
switch fluorescence ratio: 1.06 ± 0.013

TATTAACCTG
switch fluorescence ratio: 1.03 ± 0.022

TATTAACGAG
switch fluorescence ratio: 0.995 ± 0.032

TATTAAGTTT
switch fluorescence ratio: 1.02 ± 0.039

TATTACACGT
switch fluorescence ratio: 1.021 ± 0.0046

TATTACCCAA
switch fluorescence ratio: 1.05 ± 0.025

TATTACGAGT
switch fluorescence ratio: 1.02 ± 0.013

TATTAGAAGC
switch fluorescence ratio: 1.01 ± 0.046

TATTAGACGA
switch fluorescence ratio: 0.963 ± 0.015

TATTAGCAGC
switch fluorescence ratio: 1.03 ± 0.012

TATTAGGTGG
switch fluorescence ratio: 1.1 ± 0.059

TATTAGTAAG
switch fluorescence ratio: 0.985 ± 0.034

TATTATAATA
switch fluorescence ratio: 0.98 ± 0.035

TATTATAGGA
switch fluorescence ratio: 0.982 ± 0.017

TATTATATTA
switch fluorescence ratio: 1.02 ± 0.019

TATTATCTTT
switch fluorescence ratio: 1.01 ± 0.024

TATTATGAGA
switch fluorescence ratio: 0.983 ± 0.026

TATTATGTAT
switch fluorescence ratio: 0.982 ± 0.031

TATTATGTGG
switch fluorescence ratio: 0.961 ± 0.01

TATTATTCTG
switch fluorescence ratio: 0.986 ± 0.023

TATTATTTTT
switch fluorescence ratio: 0.998 ± 0.026

TATTCACAAG
switch fluorescence ratio: 1.024 ± 0.0027

TATTCATCCA
switch fluorescence ratio: 1.01 ± 0.02

TATTCATTAA
switch fluorescence ratio: 0.969 ± 0.011

TATTCATTGT
switch fluorescence ratio: 1.005 ± 0.0074

TATTCCGGCC
switch fluorescence ratio: 1.05 ± 0.058

TATTCCTCTG
switch fluorescence ratio: 2.03 ± 0.26

TATTCGAGGC
switch fluorescence ratio: 1.06 ± 0.052

TATTCGCATC
switch fluorescence ratio: 2.12 ± 0.41

TATTCTCATG
switch fluorescence ratio: 1 ± 0.047

TATTCTTGGG
switch fluorescence ratio: 1 ± 0.028

TATTGACGCC
switch fluorescence ratio: 1.09 ± 0.033

TATTGACGGT
switch fluorescence ratio: 1.02 ± 0.022

TATTGACTAG
switch fluorescence ratio: 1.03 ± 0.059

TATTGAGAGA
switch fluorescence ratio: 1.02 ± 0.053

TATTGAGCTG
switch fluorescence ratio: 0.9775 ± 0.0087

TATTGAGTAA
switch fluorescence ratio: 1.02 ± 0.02

TATTGATTTG
switch fluorescence ratio: 1.02 ± 0.019

TATTGCATTA
switch fluorescence ratio: 1.03 ± 0.013

TATTGCGCTC
switch fluorescence ratio: 1.09 ± 0.065

TATTGCGGTC
switch fluorescence ratio: 1.005 ± 0.0018

TATTGCGTGG
switch fluorescence ratio: 0.9836 ± 0.0073

TATTGCTAGG
switch fluorescence ratio: 0.9582 ± 0.0063
